Data published in IntAct's records for PubMed 19402751.

Target: T1, tim_drome tim (UniProt P49021)
T1 sequence: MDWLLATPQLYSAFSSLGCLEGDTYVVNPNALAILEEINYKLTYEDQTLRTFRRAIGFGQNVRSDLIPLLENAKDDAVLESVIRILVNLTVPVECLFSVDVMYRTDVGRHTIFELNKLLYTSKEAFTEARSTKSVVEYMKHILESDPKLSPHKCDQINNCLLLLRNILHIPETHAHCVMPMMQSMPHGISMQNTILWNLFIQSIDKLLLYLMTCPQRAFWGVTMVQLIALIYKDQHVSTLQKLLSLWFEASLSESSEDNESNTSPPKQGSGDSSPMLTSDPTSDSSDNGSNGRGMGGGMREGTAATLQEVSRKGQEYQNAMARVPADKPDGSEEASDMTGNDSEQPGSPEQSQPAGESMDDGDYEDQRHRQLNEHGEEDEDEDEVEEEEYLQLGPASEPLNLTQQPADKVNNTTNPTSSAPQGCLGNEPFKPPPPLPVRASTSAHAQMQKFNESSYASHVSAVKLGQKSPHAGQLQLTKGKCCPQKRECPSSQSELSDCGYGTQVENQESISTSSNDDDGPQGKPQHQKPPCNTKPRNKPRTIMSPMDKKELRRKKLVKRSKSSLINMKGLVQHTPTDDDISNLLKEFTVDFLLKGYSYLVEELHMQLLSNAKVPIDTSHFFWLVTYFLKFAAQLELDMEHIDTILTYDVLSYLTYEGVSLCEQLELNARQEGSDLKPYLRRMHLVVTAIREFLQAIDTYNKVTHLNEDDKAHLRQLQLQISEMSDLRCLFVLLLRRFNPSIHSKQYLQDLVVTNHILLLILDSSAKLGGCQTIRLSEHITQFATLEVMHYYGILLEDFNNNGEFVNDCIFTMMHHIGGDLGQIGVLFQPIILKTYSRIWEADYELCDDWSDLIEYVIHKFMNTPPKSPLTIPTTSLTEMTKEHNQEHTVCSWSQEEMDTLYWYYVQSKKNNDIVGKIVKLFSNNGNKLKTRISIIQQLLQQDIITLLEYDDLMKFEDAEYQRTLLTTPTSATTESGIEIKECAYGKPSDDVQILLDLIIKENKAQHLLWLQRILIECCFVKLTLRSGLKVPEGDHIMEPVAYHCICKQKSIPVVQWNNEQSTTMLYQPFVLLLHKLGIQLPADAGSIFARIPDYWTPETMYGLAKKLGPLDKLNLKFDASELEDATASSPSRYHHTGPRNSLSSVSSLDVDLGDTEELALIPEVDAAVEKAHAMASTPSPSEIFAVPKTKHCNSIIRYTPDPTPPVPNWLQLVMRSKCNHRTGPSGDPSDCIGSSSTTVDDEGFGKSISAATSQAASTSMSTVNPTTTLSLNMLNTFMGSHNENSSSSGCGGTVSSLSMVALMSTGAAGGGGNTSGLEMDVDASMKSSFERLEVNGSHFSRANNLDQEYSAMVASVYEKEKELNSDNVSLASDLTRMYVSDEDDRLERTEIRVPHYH

## Period circadian protein (Drosophila melanogaster (Fruit fly)) (from UniProt P07663-1) E474R;H492S;R494D
  effect of a mutation on the interaction: disrupting interaction
